Assay results as given in patent publication US20210221867A1 (Novo Nordisk, published 2021).
Positions of bridges follow the written chain, without caps; N, C: chain ends. Non-standard residues stand in square brackets, D forms with d. Nle = CCCC[C@H](N)C(=O)O

Legend:
human MC1 receptor [1] = molecular target: T1, human MC1 receptor (human, UniProt Q01726 1-317); assay: cell-based or functional assay
human MC4 receptor [2] = molecular target: T2, human MC4 receptor (human, UniProt P32245 1-332); assay: cell-based or functional assay
human MC1 receptor [3] = molecular target: T1, human MC1 receptor; assay: SPA competition binding, displacement of 125I-NDP-α-MSH, BHK membranes with human MC1R
Description: (§1) The SPA Binding assay was performed in 96-well white opaque plates. Each well contained: 0.5 mg PVT-WGA SPA beads, MC1 receptor expressing membrane diluted to give approximately 10% specific tracer binding, 50.000 dpm ¹²⁵I-NDP-α-MSH and relevant dilutions of test compound. The final volume in each well was 200 μl. […] Plates were incubated overnight (22-24 hours) at room temperature before counting for 2 minutes per well, using a TopCount NXT scintillation counter. Displacement of radio ligand is measured as reduction in light emission from SPA beads, and IC₅₀ values are calculated by nonlinear regression analysis of sigmoidal dose-response curves in GraphPad Prism (GraphPad Software, La Jolla, Calif., USA).

human MC4 receptor [4] = molecular target: T2, human MC4 receptor; assay: SPA competition binding, displacement of 125I-NDP-α-MSH, BHK membranes with human MC4R
Description: as §1, with “MC4” for “MC1”

T2 sequence (P32245 whole entry): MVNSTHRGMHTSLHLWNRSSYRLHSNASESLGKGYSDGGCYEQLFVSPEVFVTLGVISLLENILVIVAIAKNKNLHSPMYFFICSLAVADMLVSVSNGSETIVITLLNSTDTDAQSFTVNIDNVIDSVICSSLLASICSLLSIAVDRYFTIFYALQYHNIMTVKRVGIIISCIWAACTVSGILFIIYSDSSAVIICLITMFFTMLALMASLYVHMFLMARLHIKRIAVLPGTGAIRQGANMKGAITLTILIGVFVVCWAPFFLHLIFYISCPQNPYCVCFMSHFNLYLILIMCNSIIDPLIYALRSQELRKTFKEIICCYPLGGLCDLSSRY
T1 sequence (Q01726 whole entry): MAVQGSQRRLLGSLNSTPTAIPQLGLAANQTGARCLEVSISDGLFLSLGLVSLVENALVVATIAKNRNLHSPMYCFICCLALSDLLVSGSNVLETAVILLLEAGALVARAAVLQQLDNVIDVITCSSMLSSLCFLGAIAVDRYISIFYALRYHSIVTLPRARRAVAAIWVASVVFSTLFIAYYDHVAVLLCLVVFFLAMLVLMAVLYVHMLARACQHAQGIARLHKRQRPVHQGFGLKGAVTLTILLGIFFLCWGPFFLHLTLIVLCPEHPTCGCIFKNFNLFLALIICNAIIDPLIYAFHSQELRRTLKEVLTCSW

MC1R cAMP EC50 (human MC1 receptor [1]): 172 nM
MC4R cAMP EC50 (human MC4 receptor [2]): 0.22 nM
IC50 (human MC1 receptor [3]): 39.7 nM
IC50 (human MC4 receptor [4]): 0.23 nM
B1: Ac-Arg-c[Cys-Pro-His-D-Phe-His-Trp-Cys]-Pro-Pro-D-Arg-Glu-Nle-D-Arg-D-Arg-NH2 (peptide)
peptide: Ac-RCPH[dF]HWCPP[dR]E[Nle][dR][dR]-NH2
modifications: disulfide 2-8
SMILES: CCCC[C@H](NC(=O)[C@H](CCC(=O)O)NC(=O)[C@@H](CCCNC(=N)N)NC(=O)[C@@H]1CCCN1C(=O)[C@@H]1CCCN1C(=O)[C@@H]1CSSC[C@H](NC(=O)[C@H](CCCNC(=N)N)NC(C)=O)C(=O)N2CCC[C@H]2C(=O)N[C@@H](Cc2c[nH]cn2)C(=O)N[C@H](Cc2ccccc2)C(=O)N[C@@H](Cc2c[nH]cn2)C(=O)N[C@@H](Cc2c[nH]c3ccccc23)C(=O)N1)C(=O)N[C@H](CCCNC(=N)N)C(=O)N[C@H](CCCNC(=N)N)C(N)=O
notes: Synthetic cyclic peptide; also called Chem. 5
